US20140128319A1

How the values were obtained:
[1] = target: Type 1 IGF receptor (IGF-1R) (human) (UniProt P08069); assay: competitive displacement of 125I-Tyr31-human IGF-I; human IGF-1R, Experiment 1
[2] = target: Type 1 IGF receptor (IGF-1R) (human) (UniProt P08069); assay: competitive displacement of 125I-Tyr31-human IGF-I; human IGF-1R, Experiment 2
[3] = target: Type 1 IGF receptor (IGF-1R) (human) (UniProt P08069); assay: competitive displacement of 125I-labeled IGF-I; IGF-1R (FIG. 9B)

Chain of Type 1 IGF receptor (IGF-1R) (human) (P08069 31-1367 limits assumed): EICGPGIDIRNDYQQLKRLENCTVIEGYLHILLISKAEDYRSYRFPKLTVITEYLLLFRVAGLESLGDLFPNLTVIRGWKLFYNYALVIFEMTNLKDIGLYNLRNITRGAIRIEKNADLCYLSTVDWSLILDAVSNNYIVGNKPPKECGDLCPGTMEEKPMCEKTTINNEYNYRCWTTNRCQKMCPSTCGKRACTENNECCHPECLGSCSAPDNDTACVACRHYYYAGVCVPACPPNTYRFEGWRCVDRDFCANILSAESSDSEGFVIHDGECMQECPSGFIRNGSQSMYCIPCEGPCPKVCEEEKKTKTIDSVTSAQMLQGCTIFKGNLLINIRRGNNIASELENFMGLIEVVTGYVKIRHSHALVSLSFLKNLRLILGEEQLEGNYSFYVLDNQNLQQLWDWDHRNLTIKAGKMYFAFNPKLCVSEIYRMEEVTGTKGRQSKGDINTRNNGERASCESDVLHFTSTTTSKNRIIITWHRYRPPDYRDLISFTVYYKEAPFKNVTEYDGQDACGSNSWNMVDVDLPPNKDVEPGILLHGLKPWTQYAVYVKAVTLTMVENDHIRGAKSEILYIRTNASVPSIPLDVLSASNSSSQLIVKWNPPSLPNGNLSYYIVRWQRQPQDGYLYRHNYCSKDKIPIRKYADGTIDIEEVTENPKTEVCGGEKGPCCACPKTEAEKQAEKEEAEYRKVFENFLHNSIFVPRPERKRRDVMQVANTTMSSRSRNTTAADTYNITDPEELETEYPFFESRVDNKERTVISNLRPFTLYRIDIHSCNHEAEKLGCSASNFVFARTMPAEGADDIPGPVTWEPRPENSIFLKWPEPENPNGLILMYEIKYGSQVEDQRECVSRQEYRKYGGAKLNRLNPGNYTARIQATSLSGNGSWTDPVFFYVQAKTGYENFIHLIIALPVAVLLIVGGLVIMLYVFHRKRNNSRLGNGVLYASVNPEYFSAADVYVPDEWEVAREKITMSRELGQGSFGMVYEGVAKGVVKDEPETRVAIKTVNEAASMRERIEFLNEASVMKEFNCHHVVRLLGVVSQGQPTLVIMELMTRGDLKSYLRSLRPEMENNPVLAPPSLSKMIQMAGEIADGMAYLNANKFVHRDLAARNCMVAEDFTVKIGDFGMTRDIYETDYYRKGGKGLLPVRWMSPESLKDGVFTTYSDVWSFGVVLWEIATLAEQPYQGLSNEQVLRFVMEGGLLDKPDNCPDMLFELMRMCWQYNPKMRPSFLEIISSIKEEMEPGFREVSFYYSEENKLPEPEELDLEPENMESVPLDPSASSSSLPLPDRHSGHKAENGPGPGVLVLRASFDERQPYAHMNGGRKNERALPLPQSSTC

| Substance | Kd [1] [nM] | Kd [2] [nM] | fold reduction of cross-binding relative to KP-insulin or wild-type insulin [3] [fold] |
| --- | --- | --- | --- |
| penta-fluoro-Phe^B24-KP-insulin (ligand; penta-fluoro-phenylalanine (F5-Phe) at B24; other documents disagree on this pair) | 522 | – | – |
| KP-insulin (ligand; other documents disagree on this pair) | 12.6 | 15.3 | – |
| 4Cl-Phe^B24-KP-insulin (ligand; para-monochloro-phenylalanine (4Cl-Phe) at B24; other documents disagree on this pair) | – | – | 3 |
